These results are taken from US20240418729A1.

The target in assay [1] is human kappa light chains (kappa LCs) of control pooled human serum (human). Briefly: affinity capture from 50 µl IgG-depleted serum, elution, LysC digestion, PRM mass spectrometry.
The target of assay [2] is human lambda light chains (lambda LCs) of control pooled human serum (human). Briefly: affinity capture from 100 µl IgG-depleted serum, elution, LysC digestion, PRM mass spectrometry.
Assay [3] addresses human kappa light chains (kappa LCs) of control pooled human serum (human). In words: affinity capture from IgG-depleted serum, elution, LysC digestion, PRM mass spectrometry.

In assay [1], “Capture Select affinity beads specific for kappa (KappaXP) LCs” returned a fold increase in kappa FLC dimer signal compared to un-enriched serum of 186 fold.
Regarding “Capture Select affinity beads specific for lambda (LambdaXP) LCs”, the fold increase in lambda FLC dimer signal compared to un-enriched serum in assay [2] is 113 fold.
In turn, protein L agarose had a fold increase in kappa FLC dimer signal compared to un-enriched serum in assay [3] of 155 fold.
